Earlier results on 1 substance are cited in publication PMC6858787.

The data set deals with CheY (Thermotoga maritima) (UniProt Q56312).
UniProt Q56312, sequence (Q56312 whole entry): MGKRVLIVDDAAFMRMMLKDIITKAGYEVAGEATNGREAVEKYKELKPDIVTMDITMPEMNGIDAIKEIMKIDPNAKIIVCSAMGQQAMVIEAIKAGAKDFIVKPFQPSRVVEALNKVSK

“CheA CheY binding domain (from UniProt Q56310)”: the Kd was 200 nM.

One may read the Kd as the equilibrium constant for the complex coming apart.
